Patent US6429014B1, “Monoterpene synthases from grand fir (Abies grandis)” (Washington State University Research Foundation, priority 1997, dated 2002)

Key:
[1] = Terpene synthase assay and GC-MS / chiral GC product identification of recombinant enzymes expressed from pSBET in E. coli BL21(DE3) (Example 11); format: biochemical; conditions: extracts of induced cells
Description: For functional expression, bacterial strains E. coli BL21(DE3)/pSAG2(M), E. coli BL21(DE3)/pSAG2(R), E. coli BL21(DE3)/pSAG3(R), E. coli BL21(DE3)/pSAG6(M), E. coli BL21(DE3/pSAG6(R), E. coli BL21(DE3)/pSAG8(M), E. coli BL21(DE3)/pSAG9(M), E. coli BL21(DE3)/pSAG11(M) and E. coli BL21(DE3)/SAG11(R) were grown to A600=0.5 at 37° C. in 5 ml of Luria-Bertani medium (Sambrook, J., Fritsch, E. F., and Maniatis, T. (1989) Molecular Cloning: A Laboratory Manual, 2nd Ed., pp. 7.20-7.43, Cold Spring Harbor, N.Y.) supplemented with 30 μg kanamycin/ml. Cultures were then induced by addition of 1 mM isopropyl-1-thio-β-D-galactopyranoside and grown for another 12 h at 20° C. Cells were harvested by centrifugation and disrupted by sonication followed by centrifugation, and the resulting soluble enzyme preparations were assayed for monoterpene, sesquiterpene and diterpene synthase activity using the appropriate radiolabeled substrate as described previously (Bohlmann, J., Steele, C. L., and Croteau, R. (1997) J. Biol. Chem. 272, 21784-21792). This assay involves the isolation and separation of terpene olefins and oxygenated terpenes by column chromatography on silica, followed by scintillation counting to determine conversion rate. GC-MS analysis is employed for product identification, by comparison of retention times and mass spectra to those of authentic standards (Bohlmann, J., Steele, C. L., and Croteau, R. (1997) J. Biol Chem. 272, 21784-21792); assignment of absolute configuration is based upon chiral column capillary GC and matching of retention time to that of the corresponding enantiomer (Lewinsohn, E., Savage, T. J., Gijzen, M., and Croteau, R. (1993) Phytochem. Anal. 4, 220-225). To insure production of sufficient material for identification, the standard assay (Bohlmann, J., Steele, C. L., and Croteau, R. (1997) J. Biol. Chem. 272, 21784-21792) was scaled up by a factor of 20.
Initially, the four pSBET plasmids pSAG6(M), pSAG8(M), pSAG9(M) and pSAG11(M), containing the full-length cDNA inserts of ag6 (SEQ ID NO:64), ag8 (SEQ ID NO:66), ag9 (SEQ ID NO:77) and ag11 (SEQ ID NO:68), respectively, were expressed in E. coli BL21(DE3). Extracts of the induced, transformed bacterial cells were assayed for monoterpene, sesquiterpene and diterpene synthase activity using the corresponding labeled C10, C15 and C20 prenyl diphosphate substrates (Bohlmann, J., Steele, C. L., and Croteau, R. (1997) J. Biol. Chem. 272, 21784-21792). […] Since it is known that the relatively large amino-terminal transit peptide of plant terpene synthases can impair expression of the functional preprotein in E. coli and promote the formation of intractable inclusion bodies (Williams, D. C., McGarvey, D. J., Katahira, E. J., and Croteau, R. (1998) Biochemisiry 37, 12213-12220), the“pseudomature” forms of ag6 (SEQ ID NO:64) and ag11 (SEQ ID NO:68) were prepared by truncation of the cDNAs to insert a starting methionine immediately upstream of their tandem arginine elements (R59R 60 for ag6 (SEQ ID NO:64), R^71R^72 for ag11 (SEQ ID NO:68)) for expression in E. coli BL21(DE3)/pSAG6(R) and E. coli BL21(DE3)/pSAG11(R). Similar truncations of previously characterized ag2.2 (SEQ ID NO:1) (myrcene synthase, R^64R^65) and ag3.18 (SEQ ID NO:3) ((−)-pinene synthase, (SEQ ID NO:5) R^64R^65) (Bohlmann, J., Steele, C. L., and Croteau, R. (1997) J. Biol. Chem. 272, 21784-21792) were prepared for expression from pSBET as controls for the possible alteration of product yield and distribution resulting from truncation.
Monoterpenes generated at preparative scale from geranyl diphosphate by the recombinant enzymes encoded by ag6 (SEQ ID NO:64), ag8 (SEQ ID NO:66), ag9 (SEQ ID NO:77) and ag11 (SEQ ID NO:68) were analyzed by GC-MS and chiral phase (β-cyclodextrin) capillary GC, and identified by comparison of retention times and mass spectra to authentic standards (FIGS. 6-9). […] The enzyme encoded by ag6 (SEQ ID NO:65) is therefore designated as (−)-1S,4R-camphene synthase. […]

[2] = Bohlmann et al. 1997; cited from earlier work

B1: AG3.18: recombinant (−)-pinene synthase from Grand fir encoded by cDNA clone AG3.18 (SEQ ID NO:3; protein SEQ ID NO:4) (protein, listed as Abies grandis)
chain: MALVSTAPLASKSCLHKSLISSTHELKALSRTIPALGMSRRGKSITPSISMSSTTVVTDDGVRRRMGDFHSNLWDDDVIQSLPTAYEEKSYLERAEKLIGEVKNMFNSMSLEDGELMSPLNDLIQRLWIVDSLERLGIHRHFKDEIKSALDYVYSYWGENGIGCGRESVVTDLNSTALGLRTLRLHGYPVSSDVFKAFKGQNGQFSCSENIQTDEEIRGVLNLFRASLIAFPGEKIMDEAEIFSTKYLKEALQKIPVSSLSREIGDVLEYGWHTYLPRLEARNYIQVFGQDTENTKSYVKSKKLLELAKLEFNIFQSLQKRELESLVRWWKESGFPEMTFCRHRHVEYYTLASCIAFEPQHSGFRLGFAKTCHLITVLDDMYDTFGTVDELELFTATMKRWDPSSIDCLPEYMKGVYIAVYDTVNEMAREAEEAQGRDTLTYAREAWEAYIDSYMQEARWIATGYLPSFDEYYENGKVSCGHRISALQPILTMDIPFPDHILKEVDFPSKLNDLACAILRLRGDTRCYKADRARGEEASSISCYMKDNPGVSEEDALDHINAMISDVIKGLNWELLKPDINVPISAKKHAFDIARAFHYGYKYRDGYSVANVETKSLVTRTLLESVPL
- terpene synthase activity on expression from pSBET in E. coli BL21(DE3) [1]: high level expression of activity
- (−)-enantiomer share of the α-pinene formed [2]: more than 99%
